Assay results from patent publication US20250011418A1 (ZIELBIO, published 2025).

T1: Sec8-His (section 8 (Sec8), an antigenic region of CSP-1, tagged with a polyhistidine (His) tag)
T1 construct: also called Sec8-His antigen
T1 chain: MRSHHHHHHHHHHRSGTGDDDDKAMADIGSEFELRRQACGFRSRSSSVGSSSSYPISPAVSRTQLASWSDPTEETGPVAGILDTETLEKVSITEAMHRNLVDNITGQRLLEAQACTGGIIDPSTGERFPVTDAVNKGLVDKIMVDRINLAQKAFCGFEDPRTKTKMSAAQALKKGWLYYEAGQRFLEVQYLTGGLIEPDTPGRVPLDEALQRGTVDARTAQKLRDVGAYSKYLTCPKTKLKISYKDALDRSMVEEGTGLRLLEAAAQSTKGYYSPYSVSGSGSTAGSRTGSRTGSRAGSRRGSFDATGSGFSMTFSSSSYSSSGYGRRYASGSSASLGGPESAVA


Biological target: T1, Sec8-His (section 8 (Sec8), an …)
Experiment: BLI (Octet), single shot: antibody on anti-human IgG tips, 24 nM Sec8-His
Description: After humanization, the antibodies were tested for their capability to bind to an antigenic region of CSP-1 called section 8 (Sec8). Antigen binding was assessed by single-shot Octet analysis. Antibodies were loaded onto anti-human IgG tips, and the loaded tips were dipped into wells containing the Sec8-His antigen. Scouting experiments were used to determine ideal conditions for loading (10 minute incubation in 1 μg/mL IgG) and antigen binding (5 minute incubation in 24 nM Sec8-His, followed by a 5 minute dissociation step in buffer). Two negative controls were included with each experiment. First, a tip was loaded with irrelevant IgG dipped into 24 nM Sec8-His to control for non-specific interactions between the tip and the antigen. Next, tips loaded with humanized 1D7 variants were dipped into 24 nM GST-His to control for off-target binding of the antibody (a significant risk if a given variant is destabilized and/or exposes significant hydrophobic surface). The data from the irrelevant IgG control were subtracted from the data obtained with the […]-loaded tips. The mean and standard deviation of the signal change values for the GST-His control wells were used to calculate a threshold for positive binding (mean+3 standard deviations of the GST-His signal). Variants that were below this threshold are considered to have no specific binding to Sec8.

Row | Binder | binding result
1 | humanized anti-CSP-1 antibody, Antibody Number 22 (Table 1) (antibody, human IgG1, V domains shown, also called Antibody 22) VH: EVQLVESGGDLVKPGGSLKLSCAASGFTFSRYGMSWVRQTPDKRLEWVATISIGGTYTYYPDSMKGRFTISRDNAKNTLYLQMSSLKSEDTAMYYCARRGYGNYSYYGMDYWGQGTSVTVSS VL: DIVMTQAAFSNPVTLGTSASISCRSSKSLLHSSGITYLYWYLQKPGQSPQLLIYQMSNLASGVPDRFSSSGSGTDFTLRISRVEAEDVGVYYCAQNLELPLTFGAGTKLELK | binds
2 | humanized anti-CSP-1 antibody, Antibody Number 30 (Table 1) (antibody, human IgG1, V domains shown, also called Antibody 30) VH: EVQLVESGGEVVKPGASLKLSCKASGFTFSRYGMSWVRQAPGQRLEWVATISIGGTYTYYPDSMKGRFTITRDNSTNTLYLEMSSLRSEDTAMYYCARRGYGNYSYYGMDYWGQGTLVTVSS VL: DIVMTQAAFSNPVTLGTSASISCRSSKSLLHSNGITYLYWYLQKPGQSPQLLIYQMSNLASGVPDRFSSSGSGTDFTLRISRVEAEDVGVYYCAQNLELPLTFGAGTKLELK | binds
3 | humanized anti-CSP-1 antibody, Antibody Number 35 (Table 1) (antibody, human IgG1, V domains shown, also called Antibody 35) VH: EVQLVESGGEVVKPGASLKLSCKASGFTFSRYGMSWVRQAPGQRLEWVATISIGGTYTYYPDSMKGRFTITRDNSTNTLYLEMSSLRSEDTAMYYCARRGYGNYSYYGMDYWGQGTLVTVSS VL: DIVMTQSALSNPVTLGQSASISCRSSKSLLHSNGITYLYWYLQKPGQSPQLLIYQMSNRASGVPDRFSSSGSGTDFTLKISRVEAEDVGVYYCAQNLELPLTFGQGTKLEIK | binds
4 | humanized anti-CSP-1 antibody, Antibody Number 39 (Table 1) (antibody, human IgG1, V domains shown, also called Antibody 39) VH: EVQLVESGGGLVQPGGSLRLSCAASGFTFSRYGMSWVRQAPGKGLEWVATISIGGTYTYYPDSMKGRFTISRDNSKNTLYLQMNSLRAEDTAVYYCARRGYGNYSYYGMDYWGQGTLVTVSS VL: DIVMTQSALSLPVTLGQSASISCRSSKSLLHSNGITYLYWYLQKPGQSPQLLIYQMSNRASGVPDRFSSSGSGTDFTLKISRVEAEDVGVYYCAQNLELPLTFGQGTKLEIK | binds
5 | humanized anti-CSP-1 antibody, Antibody Number 36 (Table 1) (antibody, human IgG1, V domains shown, also called Antibody 36) VH: EVQLVESGGGLVQPGGSLRLSCAASGFTFSRYGMSWVRQAPGKRLEWVATISIGGTYTYYPDSMKGRFTISRDNSKNTLYLQMNSLRAEDTAMYYCARRGYGNYSYYGMDYWGQGTLVTVSS VL: DIVMTQSALSNPVTLGQSASISCRSSKSLLHSNGITYLYWYLQKPGQSPQLLIYQMSNRASGVPDRFSSSGSGTDFTLKISRVEAEDVGVYYCAQNLELPLTFGQGTKLEIK | binds
6 | humanized anti-CSP-1 antibody, Antibody Number 37 (Table 1) (antibody, human IgG1, V domains shown, also called Antibody 37) VH: EVQLVESGGGLVQPGGSLRLSCAASGFTFSRYGMSWVRQAPGKRLEWVATISIGGTYTYYPDSMKGRFTISRDNSKNTLYLQMNSLRAEDTAMYYCARRGYGNYSYYGMDYWGQGTLVTVSS VL: DIVMTQSALSLPVTLGQSASISCRSSKSLLHSNGITYLYWYLQKPGQSPQLLIYQMSNRASGVPDRFSSSGSGTDFTLKISRVEAEDVGVYYCAQNLELPLTFGQGTKLEIK | binds
7 | humanized anti-CSP-1 antibody, Antibody Number 38 (Table 1) (antibody, human IgG1, V domains shown, also called Antibody 38) VH: EVQLVESGGGLVQPGGSLRLSCAASGFTFSRYGMSWVRQAPGKGLEWVATISIGGTYTYYPDSMKGRFTISRDNSKNTLYLQMNSLRAEDTAVYYCARRGYGNYSYYGMDYWGQGTLVTVSS VL: DIVMTQSALSNPVTLGQSASISCRSSKSLLHSNGITYLYWYLQKPGQSPQLLIYQMSNRASGVPDRFSSSGSGTDFTLKISRVEAEDVGVYYCAQNLELPLTFGQGTKLEIK | binds
8 | humanized anti-CSP-1 antibody, Antibody Number 28 (Table 1) (antibody, human IgG1, V domains shown, also called Antibody 28) VH: EVQLVESGGDLVKPGGSLKLSCAASGFTFSRYGMSWVRQTPDKRLEWVATISIGGTYTYYPDSMKGRFTISRDNAKNTLYLQMSSLKSEDTAMYYCARRGYGNYSYYGMDYWGQGTSVTVSS VL: DIVMTQAAFSNPVTLGTSASISCRSSKSLLHSNGITYLYWYLQKPGQSPQLLIYQLSNLASGVPDRFSSSGSGTDFTLRISRVEAEDVGVYYCAQNLELPLTFGAGTKLELK | binds
9 | humanized anti-CSP-1 antibody, Antibody Number 25 (Table 1) (antibody, human IgG1, V domains shown, also called Antibody 25) VH: EVQLVESGGDLVKPGGSLKLSCAASGFTFSRYGMSWVRQTPDKRLEWVATISIGGTYTYYPDSMKGRFTISRDNAKNTLYLQMSSLKSEDTAMYYCARRGYGNYSYYGMDYWGQGTSVTVSS VL: DIVMTQAAFSNPVTLGTSASISCRSSKSLLHSQGITYLYWYLQKPGQSPQLLIYQMSNLASGVPDRFSSSGSGTDFTLRISRVEAEDVGVYYCAQNLELPLTFGAGTKLELK | binds
10 | humanized anti-CSP-1 antibody, Antibody Number 24 (Table 1) (antibody, human IgG1, V domains shown, also called Antibody 24) VH: EVQLVESGGDLVKPGGSLKLSCAASGFTFSRYGMSWVRQTPDKRLEWVATISIGGTYTYYPDSMKGRFTISRDNAKNTLYLQMSSLKSEDTAMYYCARRGYGNYSYYGMDYWGQGTSVTVSS VL: DIVMTQAAFSNPVTLGTSASISCRSSKSLLHSDGITYLYWYLQKPGQSPQLLIYQMSNLASGVPDRFSSSGSGTDFTLRISRVEAEDVGVYYCAQNLELPLTFGAGTKLELK | binds
11 | humanized anti-CSP-1 antibody, Antibody Number 26 (Table 1) (antibody, human IgG1, V domains shown, also called Antibody 26) VH: EVQLVESGGDLVKPGGSLKLSCAASGFTFSRYGMSWVRQTPDKRLEWVATISIGGTYTYYPDSMKGRFTISRDNAKNTLYLQMSSLKSEDTAMYYCARRGYGNYSYYGMDYWGQGTSVTVSS VL: DIVMTQAAFSNPVTLGTSASISCRSSKSLLHSEGITYLYWYLQKPGQSPQLLIYQMSNLASGVPDRFSSSGSGTDFTLRISRVEAEDVGVYYCAQNLELPLTFGAGTKLELK | binds
12 | humanized anti-CSP-1 antibody, Antibody Number 23 (Table 1) (antibody, human IgG1, V domains shown, also called Antibody 23) VH: EVQLVESGGDLVKPGGSLKLSCAASGFTFSRYGMSWVRQTPDKRLEWVATISIGGTYTYYPDSMKGRFTISRDNAKNTLYLQMSSLKSEDTAMYYCARRGYGNYSYYGMDYWGQGTSVTVSS VL: DIVMTQAAFSNPVTLGTSASISCRSSKSLLHSVGITYLYWYLQKPGQSPQLLIYQMSNLASGVPDRFSSSGSGTDFTLRISRVEAEDVGVYYCAQNLELPLTFGAGTKLELK | binds
13 | humanized anti-CSP-1 antibody, Antibody Number 32 (Table 1) (antibody, human IgG1, V domains shown, also called Antibody 32) VH: EVQLVESGGGLVQPGGSLRLSCAASGFTFSRYGMSWVRQAPGKGLEWVATISIGGTYTYYPDSMKGRFTISRDNSKNTLYLQMNSLRAEDTAVYYCARRGYGNYSYYGMDYWGQGTLVTVSS VL: DIVMTQAAFSNPVTLGTSASISCRSSKSLLHSNGITYLYWYLQKPGQSPQLLIYQMSNLASGVPDRFSSSGSGTDFTLRISRVEAEDVGVYYCAQNLELPLTFGAGTKLELK | binds
14 | humanized anti-CSP-1 antibody, Antibody Number 34 (Table 1) (antibody, human IgG1, V domains shown, also called Antibody 34) VH: EVQLVESGGDLVKPGGSLKLSCAASGFTFSRYGMSWVRQTPDKRLEWVATISIGGTYTYYPDSMKGRFTISRDNAKNTLYLQMSSLKSEDTAMYYCARRGYGNYSYYGMDYWGQGTSVTVSS VL: DIVMTQSALSLPVTLGQSASISCRSSKSLLHSNGITYLYWYLQKPGQSPQLLIYQMSNRASGVPDRFSSSGSGTDFTLKISRVEAEDVGVYYCAQNLELPLTFGQGTKLEIK | binds
15 | humanized anti-CSP-1 antibody, Antibody Number 29 (Table 1) (antibody, human IgG1, V domains shown, also called Antibody 29) VH: EVQLVESGGDLVKPGGSLKLSCAASGFTFSRYGMSWVRQTPDKRLEWVATISIGGTYTYYPDSMKGRFTISRDNAKNTLYLQMSSLKSEDTAMYYCARRGYGNYSYYGMDYWGQGTSVTVSS VL: DIVMTQAAFSNPVTLGTSASISCRSSKSLLHSNGITYLYWYLQKPGQSPQLLIYQISNLASGVPDRFSSSGSGTDFTLRISRVEAEDVGVYYCAQNLELPLTFGAGTKLELK | binds
16 | humanized anti-CSP-1 antibody, Antibody Number 31 (Table 1) (antibody, human IgG1, V domains shown, also called Antibody 31) VH: EVQLVESGGGLVQPGGSLRLSCAASGFTFSRYGMSWVRQAPGKRLEWVATISIGGTYTYYPDSMKGRFTISRDNSKNTLYLQMNSLRAEDTAMYYCARRGYGNYSYYGMDYWGQGTLVTVSS VL: DIVMTQAAFSNPVTLGTSASISCRSSKSLLHSNGITYLYWYLQKPGQSPQLLIYQMSNLASGVPDRFSSSGSGTDFTLRISRVEAEDVGVYYCAQNLELPLTFGAGTKLELK | binds
17 | humanized anti-CSP-1 antibody, Antibody Number 33 (Table 1) (antibody, human IgG1, V domains shown, also called Antibody 33) VH: EVQLVESGGDLVKPGGSLKLSCAASGFTFSRYGMSWVRQTPDKRLEWVATISIGGTYTYYPDSMKGRFTISRDNAKNTLYLQMSSLKSEDTAMYYCARRGYGNYSYYGMDYWGQGTSVTVSS VL: DIVMTQSALSNPVTLGQSASISCRSSKSLLHSNGITYLYWYLQKPGQSPQLLIYQMSNRASGVPDRFSSSGSGTDFTLKISRVEAEDVGVYYCAQNLELPLTFGQGTKLEIK | binds
18 | humanized anti-CSP-1 antibody, Antibody Number 27 (Table 1) (antibody, human IgG1, V domains shown, also called Antibody 27) VH: EVQLVESGGDLVKPGGSLKLSCAASGFTFSRYGMSWVRQTPDKRLEWVATISIGGTYTYYPDSMKGRFTISRDNAKNTLYLQMSSLKSEDTAMYYCARRGYGNYSYYGMDYWGQGTSVTVSS VL: DIVMTQAAFSNPVTLGTSASISCRSSKSLLHSNGITYLYWYLQKPGQSPQLLIYQVSNLASGVPDRFSSSGSGTDFTLRISRVEAEDVGVYYCAQNLELPLTFGAGTKLELK | binds
